Biological target: T1, myristoylated zGCAP2 (zebrafish), Q90WX3
T1 chain: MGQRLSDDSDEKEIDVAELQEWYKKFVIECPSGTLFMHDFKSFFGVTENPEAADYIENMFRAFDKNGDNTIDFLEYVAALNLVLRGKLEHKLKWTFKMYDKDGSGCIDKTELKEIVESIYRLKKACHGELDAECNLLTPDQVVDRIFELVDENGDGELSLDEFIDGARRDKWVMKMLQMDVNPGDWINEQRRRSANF
Experiment: SEC; analytical size exclusion chromatography of purified myristoylated zGCAPs on a Primaide HPLC system, as described previously (refs 12, 18, 30); Ca2+ dependence tested; data not shown
Details: remark: other sources report otherwise

B1: myristoylated zGCAP2, Q90WX3 1-197 (natural protein)
chain: MGQRLSDDSDEKEIDVAELQEWYKKFVIECPSGTLFMHDFKSFFGVTENPEAADYIENMFRAFDKNGDNTIDFLEYVAALNLVLRGKLEHKLKWTFKMYDKDGSGCIDKTELKEIVESIYRLKKACHGELDAECNLLTPDQVVDRIFELVDENGDGELSLDEFIDGARRDKWVMKMLQMDVNPGDWINEQRRRSANF
modifications: here or on the partner: N-terminal myristoyl group; N-terminal myristoyl group
B1 was tested, and the percent monomeric form was 80% and the stoichiometry N was 2.

Source: article PMC4462140
